Assay results reported in US20160264649A1.

Experiments:
Assay in all cases: cell-based or functional assay
[1] = target: HIV-1 Env of isolate 94UG103 (subtype A) (HIV-1)
[2] = target: HIV-1 Env of isolate 93UG077 (subtype A) (HIV-1)
[3] = target: HIV-1 Env of isolate MGRM-D-001 (subtype D) (HIV-1)
[4] = target: HIV-1 Env of isolate 92WR026 (subtype A) (HIV-1)
[5] = target: HIV-1 Env of isolate MGRM-D-026 (subtype D) (HIV-1)
[6] = target: HIV-1 Env of isolate 92UG031 (subtype A) (HIV-1)
[7] = target: HIV-1 Env of isolate MGRM-AE-006 (subtype AE) (HIV-1)
[8] = target: HIV-1 Env of isolate MGRM-D-022 (subtype D) (HIV-1)
[9] = target: HIV-1 Env of isolate MGRM-D-008 (subtype D) (HIV-1)
[10] = target: HIV-1 Env of isolate MGRM-F1-010 (subtype F) (HIV-1)
[11] = target: HIV-1 Env of isolate MGRM-D-012 (subtype D) (HIV-1)
[12] = target: HIV-1 Env of isolate MGRM-D-020 (subtype D) (HIV-1)
[13] = target: HIV-1 Env of isolate MGRM-F1-023 (subtype F) (HIV-1)
[14] = target: HIV-1 Env of isolate MGRM-D-019 (subtype D) (HIV-1)
[15] = target: HIV-1 Env of isolate MGRM-D-016 (subtype D) (HIV-1)
[16] = target: HIV-1 Env of isolate MGRM-F1-013 (subtype F) (HIV-1)
[17] = target: HIV-1 Env of isolate MGRM-F1-015 (subtype F) (HIV-1)
[18] = target: HIV-1 Env of isolate MGRM-D-002 (subtype D) (HIV-1)
[19] = target: HIV-1 Env of isolate 92UG114 (subtype D) (HIV-1)
[20] = target: HIV-1 Env of isolate MGRM-F1-014 (subtype F) (HIV-1)
[21] = target: HIV-1 Env of isolate MGRM-AE-008 (subtype AE) (HIV-1)
[22] = target: HIV-1 Env of isolate 92UG037 (subtype A) (HIV-1)
[23] = target: HIV-1 Env of isolate 92WR009 (subtype A) (HIV-1)
[24] = target: HIV-1 Env of isolate MGRM-D-004 (subtype D) (HIV-1)
[25] = target: HIV-1 Env of isolate MGRM-AE-003 (subtype AE) (HIV-1)
[26] = target: HIV-1 Env of isolate MGRM-AE-001 (subtype AE) (HIV-1)
[27] = target: HIV-1 Env of isolate MGRM-D-014 (subtype D) (HIV-1)
[28] = target: HIV-1 Env of isolate MGRM-F1-012 (subtype F) (HIV-1)
[29] = target: HIV-1 Env of isolate 92WR021 (subtype A) (HIV-1)
[30] = target: HIV-1 Env of isolate MGRM-F1-018 (subtype F) (HIV-1)
[31] = target: HIV-1 Env of isolate MGRM-F1-022 (subtype F) (HIV-1)
[32] = target: HIV-1 Env of isolate 93WR029 (subtype A) (HIV-1)
[33] = target: HIV-1 Env of isolate MGRM-D-021 (subtype D) (HIV-1)
[34] = target: HIV-1 Env of isolate 92WR024 (subtype A) (HIV-1)
[35] = target: HIV-1 Env of isolate MGRM-F1-016 (subtype F) (HIV-1)
[36] = target: HIV-1 Env of isolate MGRM-F1-008 (subtype F) (HIV-1)
[37] = target: HIV-1 Env of isolate 92TH021 (subtype AE) (HIV-1)
[38] = target: HIV-1 Env of isolate MGRM-D-005 (subtype D) (HIV-1)
[39] = target: HIV-1 Env of isolate MGRM-AE-007 (subtype AE) (HIV-1)
[40] = target: HIV-1 Env of isolate VLGCA1 (subtype A) (HIV-1)
[41] = target: HIV-1 Env of isolate 92WR020 (subtype A) (HIV-1)
[42] = target: HIV-1 Env of isolate MGRM-D-003 (subtype D) (HIV-1)
[43] = target: HIV-1 Env of isolate MGRM-D-013 (subtype D) (HIV-1)
[44] = target: HIV-1 Env of isolate MGRM-AE-005 (subtype AE) (HIV-1)
[45] = target: HIV-1 Env of isolate MGRM-D-029 (subtype D) (HIV-1)
[46] = target: HIV-1 Env of isolate MGRM-F1-006 (subtype F) (HIV-1)
[47] = target: HIV-1 Env of isolate MGRM-AE-002 (subtype AE) (HIV-1)
[48] = target: HIV-1 Env of isolate MGRM-F1-004 (subtype F) (HIV-1)
[49] = target: HIV-1 Env of isolate MGRM-D-018 (subtype D) (HIV-1)
[50] = target: HIV-1 Env of isolate 94 KE 105 (subtype AC) (HIV-1)
[51] = target: HIV-1 Env of isolate MGRM-D-024 (subtype D) (HIV-1)
[52] = target: HIV-1 Env of isolate MGRM-AE-004 (subtype AE) (HIV-1)
[53] = target: HIV-1 Env of isolate MGRM-D-011 (subtype D) (HIV-1)
[54] = target: HIV-1 Env of isolate MGRM-F1-021 (subtype F) (HIV-1)
[55] = target: HIV-1 Env of isolate MGRM-F1-017 (subtype F) (HIV-1)
[56] = target: HIV-1 Env of isolate MGRM-F1-020 (subtype F) (HIV-1)
[57] = target: HIV-1 Env of isolate MGRM-D-028 (subtype D) (HIV-1)
[58] = target: HIV-1 Env of isolate CMU02 (subtype AE) (HIV-1)

Chain of PGT-143 (4980_N08) (antibody) (VH): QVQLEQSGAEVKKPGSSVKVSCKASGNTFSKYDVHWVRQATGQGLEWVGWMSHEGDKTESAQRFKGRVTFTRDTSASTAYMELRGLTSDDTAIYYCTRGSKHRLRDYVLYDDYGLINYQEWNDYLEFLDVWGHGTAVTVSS
Chain of PGT-143 (4980_N08) (antibody) (VL): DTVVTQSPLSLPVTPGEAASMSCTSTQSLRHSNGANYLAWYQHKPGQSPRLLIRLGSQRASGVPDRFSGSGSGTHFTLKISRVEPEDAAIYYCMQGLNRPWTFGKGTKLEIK

Substance: PGT-143 (4980_N08) (antibody)
- IC50 (pseudovirus neutralization) [1]: > 50 µg/mL
- IC50 (pseudovirus neutralization) [2]: > 50 µg/mL
- IC50 (pseudovirus neutralization) [3]: > 50 µg/mL
- IC50 (pseudovirus neutralization) [4]: 5.36 µg/mL
- IC50 (pseudovirus neutralization) [5]: 44.6 µg/mL
- IC50 (pseudovirus neutralization) [6]: 0.095 µg/mL
- IC50 (pseudovirus neutralization) [7]: > 50 µg/mL
- IC50 (pseudovirus neutralization) [8]: > 50 µg/mL
- IC50 (pseudovirus neutralization) [9]: 0.153 µg/mL
- IC50 (pseudovirus neutralization) [10]: > 50 µg/mL
- IC50 (pseudovirus neutralization) [11]: > 50 µg/mL
- IC50 (pseudovirus neutralization) [12]: > 50 µg/mL
- IC50 (pseudovirus neutralization) [13]: 0.972 µg/mL
- IC50 (pseudovirus neutralization) [14]: 0.277 µg/mL
- IC50 (pseudovirus neutralization) [15]: > 50 µg/mL
- IC50 (pseudovirus neutralization) [16]: 0.013 µg/mL
- IC50 (pseudovirus neutralization) [17]: > 50 µg/mL
- IC50 (pseudovirus neutralization) [18]: > 50 µg/mL
- IC50 (pseudovirus neutralization) [19]: > 50 µg/mL
- IC50 (pseudovirus neutralization) [20]: 0.001 µg/mL
- IC50 (pseudovirus neutralization) [21]: 0.135 µg/mL
- IC50 (pseudovirus neutralization) [22]: 0.854 µg/mL
- IC50 (pseudovirus neutralization) [23]: 0.01 µg/mL
- IC50 (pseudovirus neutralization) [24]: > 50 µg/mL
- IC50 (pseudovirus neutralization) [25]: > 50 µg/mL
- IC50 (pseudovirus neutralization) [26]: > 50 µg/mL
- IC50 (pseudovirus neutralization) [27]: 0.009 µg/mL
- IC50 (pseudovirus neutralization) [28]: > 50 µg/mL
- IC50 (pseudovirus neutralization) [29]: > 50 µg/mL
- IC50 (pseudovirus neutralization) [30]: 0.701 µg/mL
- IC50 (pseudovirus neutralization) [31]: 0.082 µg/mL
- IC50 (pseudovirus neutralization) [32]: 0.053 µg/mL
- IC50 (pseudovirus neutralization) [33]: > 50 µg/mL
- IC50 (pseudovirus neutralization) [34]: 0.122 µg/mL
- IC50 (pseudovirus neutralization) [35]: > 50 µg/mL
- IC50 (pseudovirus neutralization) [36]: 0.189 µg/mL
- IC50 (pseudovirus neutralization) [37]: 0.003 µg/mL
- IC50 (pseudovirus neutralization) [38]: 1.41 µg/mL
- IC50 (pseudovirus neutralization) [39]: 13.6 µg/mL
- IC50 (pseudovirus neutralization) [40]: 17.4 µg/mL
- IC50 (pseudovirus neutralization) [41]: > 50 µg/mL
- IC50 (pseudovirus neutralization) [42]: > 50 µg/mL
- IC50 (pseudovirus neutralization) [43]: 0.386 µg/mL
- IC50 (pseudovirus neutralization) [44]: > 50 µg/mL
- IC50 (pseudovirus neutralization) [45]: 0.2 µg/mL
- IC50 (pseudovirus neutralization) [46]: 12.3 µg/mL
- IC50 (pseudovirus neutralization) [47]: > 50 µg/mL
- IC50 (pseudovirus neutralization) [48]: 0.036 µg/mL
- IC50 (pseudovirus neutralization) [49]: > 50 µg/mL
- IC50 (pseudovirus neutralization) [50]: 0.368 µg/mL
- IC50 (pseudovirus neutralization) [51]: > 50 µg/mL
- IC50 (pseudovirus neutralization) [52]: 0.002 µg/mL
- IC50 (pseudovirus neutralization) [53]: > 50 µg/mL
- IC50 (pseudovirus neutralization) [54]: > 50 µg/mL
- IC50 (pseudovirus neutralization) [55]: 26.3 µg/mL
- IC50 (pseudovirus neutralization) [56]: 0.98 µg/mL
- IC50 (pseudovirus neutralization) [57]: > 50 µg/mL
- IC50 (pseudovirus neutralization) [58]: > 50 µg/mL
